{"source": "paper PMC8015186", "key": {"[1]": {"molecular_target": "TraWF in the BACTH-TM vectors (E. coli (F-plasmid)) (UniProt P18472)", "assay": "two-hybrid"}, "[2]": {"molecular_target": "TraBN with T18 or T25 at its N-terminus (BACTH) (Neisseria gonorrhoeae MS11) (UniProt Q5EPB9)", "assay": "two-hybrid"}}}
{"substance": "TraVF in the BACTH-TM vectors (from UniProt P41069 19-171) (natural protein)", "values": [{"measurement": "β-galactosidase signal over background (times above the background level)", "setting": "[1]", "value": 8}]}
{"substance": "TrbCN in the BACTH-TM vectors (natural protein)", "values": [{"measurement": "β-galactosidase signal over background (times above the background level)", "setting": "[2]", "value": 4}]}
